What all share (experiment): capture ELISA, alanine scan, vs silent alanine substitutions
The target of assay [1] is T1, hCTLA4_ECD.His point mutant T72 to alanine (human, UniProt P16410 36-161).
T1 construct: extracellular domain; alanine-scan mutein, HEK293F supernatant
T1 sequence (looked up): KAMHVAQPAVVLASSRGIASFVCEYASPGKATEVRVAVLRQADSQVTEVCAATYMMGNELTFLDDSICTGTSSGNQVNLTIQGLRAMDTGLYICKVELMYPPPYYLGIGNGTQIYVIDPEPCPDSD
The gist of the method: (§1)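 Secreted His-tagged CTLA4 point muteins in quantified supernatant were captured and probed with HRP anti-His antibody and TMB. Absorbance normalised to the mean of control mutants; epitope residues were assigned with a binding fold-change cutoff of <0.55.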

The target of assay [2] is T2, hCTLA4_ECD.His point mutant Q76 to alanine (human, UniProt P16410 36-161).
T2 construct: extracellular domain; alanine-scan mutein, HEK293F supernatant
T2 sequence (looked up): T1 sequence (looked up) with A37T, Q41A
Put shortly: as §1

Assay [3] addresses T3, hCTLA4_ECD.His point mutant Y89 to alanine (human, UniProt P16410 36-161).
T3 construct: extracellular domain; alanine-scan mutein, HEK293F supernatant
T3 sequence (looked up): T1 sequence (looked up) with A37T, Y54A
The gist of the method:
as §1

Assay [4] has as its target T4, hCTLA4_ECD.His point mutant M90 to alanine (human, UniProt P16410 36-161).
T4 construct: extracellular domain; alanine-scan mutein, HEK293F supernatant
T4 sequence (looked up): T1 sequence (looked up) with A37T, M55A
The gist of the method:
as §1

Assay [5] has as its target T5, hCTLA4_ECD.His point mutant C103 to alanine (human, UniProt P16410 36-161).
T5 construct: extracellular domain; alanine-scan mutein, HEK293F supernatant
T5 sequence (looked up): T1 sequence (looked up) with A37T, C68A
Put shortly:
as §1

Assay [6] concerns the target T6, hCTLA4_ECD.His point mutant Y127 to alanine (human, UniProt P16410 36-161).
T6 construct: extracellular domain; alanine-scan mutein, HEK293F supernatant
T6 sequence (looked up): T1 sequence (looked up) with A37T, Y92A
Put shortly: as §1

Assay [7] concerns the target T7, hCTLA4_ECD.His point mutant K130 to alanine (human, UniProt P16410 36-161).
T7 construct: extracellular domain; alanine-scan mutein, HEK293F supernatant
T7 sequence (looked up): T1 sequence (looked up) with A37T, K95A
Put shortly: as §1

The target in assay [8] is T8, hCTLA4_ECD.His point mutant V131 to alanine (human, UniProt P16410 36-161).
T8 construct: extracellular domain; alanine-scan mutein, HEK293F supernatant
T8 sequence (looked up): T1 sequence (looked up) with A37T, V96A
Put shortly: as §1

The target of assay [9] is T9, hCTLA4_ECD.His point mutant Y139 to alanine (human, UniProt P16410 36-161).
T9 construct: extracellular domain; alanine-scan mutein, HEK293F supernatant
T9 sequence (looked up): T1 sequence (looked up) with A37T, Y104A
The gist of the method:
as §1

Assay [10] addresses T10, hCTLA4_ECD.His point mutant G142 to alanine (human, UniProt P16410 36-161).
T10 construct: extracellular domain; alanine-scan mutein, HEK293F supernatant
T10 sequence (looked up): T1 sequence (looked up) with A37T, G107A
Put shortly:
as §1

Assay [11] concerns the target T11, hCTLA4_ECD.His point mutant I143 to alanine (human, UniProt P16410 36-161).
T11 construct: extracellular domain; alanine-scan mutein, HEK293F supernatant
T11 sequence (looked up): T1 sequence (looked up) with A37T, I108A
The gist of the method: as §1

Assay [12] addresses T12, hCTLA4_ECD.His point mutant T147 to alanine (human, UniProt P16410 36-161).
T12 construct: extracellular domain; alanine-scan mutein, HEK293F supernatant
T12 sequence (looked up): T1 sequence (looked up) with A37T, T112A
Put shortly: as §1

Assay [13] concerns the target T13, hCTLA4_ECD.His point mutant Q148 to alanine (human, UniProt P16410 36-161).
T13 construct: extracellular domain; alanine-scan mutein, HEK293F supernatant
T13 sequence (looked up): T1 sequence (looked up) with A37T, Q113A
Put shortly: as §1

Among the data in US20200277377A1 (WUXI BIOLOGICS SHANGHAI, published 2020) are Fold change values, retold here.

Where a chain is given by its changes, count along the chain named.

B1: W3162-1.146.19-z12-uAb.IgG1K (antibody, V domains shown)
VH: QVQLQESGPGLVKPSETLSLTCSVTYHTITSGYDWTWIRKPPGKGMEWIGYISYSGNTNYNPSLKSRVTISRDTSKNQFFLKLSSVTAADTAVYYCASMMVPHYYVMDAWGQGTLVTVSS
VL: DIVMTQTPLSLSVTPGQPASISCRSSQSLLNSDGNTYLYWYLQKPGQSPQLLIYLVSKLGSGVPNRFSGSGSGTDFTLKISRVEAEDVGVYYCVQGTHDPWTFGGGTKVEIK
notes: Humanized; label says IgG1K
In the case of B1, the Fold change in [1] turned out to be 0.541 fold; in assay [2] it was 0.2 fold; in assay [3] it was 0.512 fold; in assay [4], 0.492 fold; in assay [5], 0.544 fold; in [6] it was 0.529 fold. For the same molecule, the Fold change in assay [7] was 0.348 fold; in assay [8] it was 0.504 fold; in assay [9], 0.431 fold; in [10], 0.543 fold; in assay [11], 0.264 fold; in assay [12] it was 0.486 fold. The molecule further registered a Fold change in assay [13] of 0.5 fold.
